In patent publication EP4745153A1, “GLP-1, GIP AND GCG RECEPTOR […] USE THEREOF” (Jiangsu Hengrui Pharmaceuticals Co., Ltd., priority 2023, dated 2025):
Like-named read-outs stand apart in the source and are kept apart here. Starred links: 1 amine or outer side, 2 acyl side, 3 side chain; linkers in the order of their positions; H or OH if unused. Non-standard residues stand in square brackets, D forms with d. Residues, ends and D or L forms follow the SMILES beside them. Groups on a side chain read outwards from the residue. No end group written: not given here. *: point of attachment. C20 diacid = O=C(O)CCCCCCCCCCCCCCCCCCC(=O)*; γGlu = O=C(O)[C@H](CCC(=O)[*:2])N[*:1]; αMeL = CC(C)C[C@](C)(N)C(=O)O; αMeK = C[C@](N)(CCCCN)C(=O)O; αMeS = C[C@](N)(CO)C(=O)O; AEEA = NCCOCCOCC(=O)O; Aib = CC(C)(N)C(=O)O

T1: human GIPR (Homo sapiens, UniProt P48546)
T1 construct: expressed in transfected cells; host or cells: CHO-K1 clonal cell line
T1 sequence (P48546 22-466): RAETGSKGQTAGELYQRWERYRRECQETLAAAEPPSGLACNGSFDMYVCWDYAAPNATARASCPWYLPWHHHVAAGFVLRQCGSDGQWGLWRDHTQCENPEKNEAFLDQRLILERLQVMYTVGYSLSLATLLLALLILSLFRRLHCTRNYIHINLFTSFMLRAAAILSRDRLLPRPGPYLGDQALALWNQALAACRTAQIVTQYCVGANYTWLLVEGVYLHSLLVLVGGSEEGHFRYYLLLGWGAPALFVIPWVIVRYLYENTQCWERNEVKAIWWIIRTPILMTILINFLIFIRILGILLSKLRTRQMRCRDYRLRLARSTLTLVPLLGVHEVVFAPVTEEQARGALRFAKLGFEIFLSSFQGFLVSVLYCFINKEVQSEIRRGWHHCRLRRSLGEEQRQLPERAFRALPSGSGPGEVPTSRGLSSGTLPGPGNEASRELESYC

T2: human glucose-dependent insulinotropic polypeptide receptor (human, UniProt P48546 22-466)
T2 sequence (looked up): T1 sequence (P48546 22-466)

B1: Compound No. 0119 (peptide)
peptide: H[Aib]HGTFTSDYS[αMeK]ILEK([AEEA-AEEA-γGlu-C20 diacid])KAAQEFVEWLLAGGPSSGAPPPS-NH2
modifications: N-terminus assumed
SMILES: CC[C@H](C)[C@H](NC(=O)[C@](C)(CCCCN)NC(=O)[C@H](CO)NC(=O)[C@H](Cc1ccc(O)cc1)NC(=O)[C@H](CC(=O)O)NC(=O)[C@H](CO)NC(=O)[C@@H](NC(=O)[C@H](Cc1ccccc1)NC(=O)[C@@H](NC(=O)CNC(=O)[C@H](Cc1c[nH]cn1)NC(=O)C(C)(C)NC(=O)[C@@H](N)Cc1c[nH]cn1)[C@@H](C)O)[C@@H](C)O)C(=O)N[C@@H](CC(C)C)C(=O)N[C@@H](CCC(=O)O)C(=O)N[C@@H](CCCCNC(=O)COCCOCCNC(=O)COCCOCCNC(=O)CC[C@H](NC(=O)CCCCCCCCCCCCCCCCCCC(=O)O)C(=O)O)C(=O)N[C@@H](CCCCN)C(=O)N[C@@H](C)C(=O)N[C@@H](C)C(=O)N[C@@H](CCC(N)=O)C(=O)N[C@@H](CCC(=O)O)C(=O)N[C@@H](Cc1ccccc1)C(=O)N[C@H](C(=O)N[C@@H](CCC(=O)O)C(=O)N[C@@H](Cc1c[nH]c2ccccc12)C(=O)N[C@@H](CC(C)C)C(=O)N[C@@H](CC(C)C)C(=O)N[C@@H](C)C(=O)NCC(=O)NCC(=O)N1CCC[C@H]1C(=O)N[C@@H](CO)C(=O)N[C@@H](CO)C(=O)NCC(=O)N[C@@H](C)C(=O)N1CCC[C@H]1C(=O)N1CCC[C@H]1C(=O)N1CCC[C@H]1C(=O)N[C@@H](CO)C(N)=O)C(C)C
B2: Compound No. 0112 (peptide)
peptide: H[Aib]HGTFTSDYS[αMeK]LLEK([AEEA-AEEA-γGlu-C20 diacid])KAAQEFVEWLLAGGPSSGAPPPS-NH2
modifications: N-terminus assumed
SMILES: CC(C)C[C@H](NC(=O)[C@H](CC(C)C)NC(=O)[C@H](Cc1c[nH]c2ccccc12)NC(=O)[C@H](CCC(=O)O)NC(=O)[C@@H](NC(=O)[C@H](Cc1ccccc1)NC(=O)[C@H](CCC(=O)O)NC(=O)[C@H](CCC(N)=O)NC(=O)[C@H](C)NC(=O)[C@H](C)NC(=O)[C@H](CCCCN)NC(=O)[C@H](CCCCNC(=O)COCCOCCNC(=O)COCCOCCNC(=O)CC[C@H](NC(=O)CCCCCCCCCCCCCCCCCCC(=O)O)C(=O)O)NC(=O)[C@H](CCC(=O)O)NC(=O)[C@H](CC(C)C)NC(=O)[C@H](CC(C)C)NC(=O)[C@](C)(CCCCN)NC(=O)[C@H](CO)NC(=O)[C@H](Cc1ccc(O)cc1)NC(=O)[C@H](CC(=O)O)NC(=O)[C@H](CO)NC(=O)[C@@H](NC(=O)[C@H](Cc1ccccc1)NC(=O)[C@@H](NC(=O)CNC(=O)[C@H](Cc1c[nH]cn1)NC(=O)C(C)(C)NC(=O)[C@@H](N)Cc1c[nH]cn1)[C@@H](C)O)[C@@H](C)O)C(C)C)C(=O)N[C@@H](C)C(=O)NCC(=O)NCC(=O)N1CCC[C@H]1C(=O)N[C@@H](CO)C(=O)N[C@@H](CO)C(=O)NCC(=O)N[C@@H](C)C(=O)N1CCC[C@H]1C(=O)N1CCC[C@H]1C(=O)N1CCC[C@H]1C(=O)N[C@@H](CO)C(N)=O
B3: Compound No. 0125 (peptide)
peptide: H[Aib]HGTFTSDYSI[αMeL]LEK([AEEA-AEEA-γGlu-C20 diacid])KAAQEFVEWLLAGGPSSGAPPPS-NH2
modifications: N-terminus assumed
SMILES: CC[C@H](C)[C@H](NC(=O)[C@H](CO)NC(=O)[C@H](Cc1ccc(O)cc1)NC(=O)[C@H](CC(=O)O)NC(=O)[C@H](CO)NC(=O)[C@@H](NC(=O)[C@H](Cc1ccccc1)NC(=O)[C@@H](NC(=O)CNC(=O)[C@H](Cc1c[nH]cn1)NC(=O)C(C)(C)NC(=O)[C@@H](N)Cc1c[nH]cn1)[C@@H](C)O)[C@@H](C)O)C(=O)N[C@@](C)(CC(C)C)C(=O)N[C@@H](CC(C)C)C(=O)N[C@@H](CCC(=O)O)C(=O)N[C@@H](CCCCNC(=O)COCCOCCNC(=O)COCCOCCNC(=O)CC[C@H](NC(=O)CCCCCCCCCCCCCCCCCCC(=O)O)C(=O)O)C(=O)N[C@@H](CCCCN)C(=O)N[C@@H](C)C(=O)N[C@@H](C)C(=O)N[C@@H](CCC(N)=O)C(=O)N[C@@H](CCC(=O)O)C(=O)N[C@@H](Cc1ccccc1)C(=O)N[C@H](C(=O)N[C@@H](CCC(=O)O)C(=O)N[C@@H](Cc1c[nH]c2ccccc12)C(=O)N[C@@H](CC(C)C)C(=O)N[C@@H](CC(C)C)C(=O)N[C@@H](C)C(=O)NCC(=O)NCC(=O)N1CCC[C@H]1C(=O)N[C@@H](CO)C(=O)N[C@@H](CO)C(=O)NCC(=O)N[C@@H](C)C(=O)N1CCC[C@H]1C(=O)N1CCC[C@H]1C(=O)N1CCC[C@H]1C(=O)N[C@@H](CO)C(N)=O)C(C)C
B4: Compound No. 0120 (peptide)
peptide: H[Aib]HGTFTSDYSILLEK([AEEA-AEEA-γGlu-C20 diacid])KAAQEFVEWLLAGGPSSGAPPPS-NH2
modifications: N-terminus assumed
SMILES: CC[C@H](C)[C@H](NC(=O)[C@H](CO)NC(=O)[C@H](Cc1ccc(O)cc1)NC(=O)[C@H](CC(=O)O)NC(=O)[C@H](CO)NC(=O)[C@@H](NC(=O)[C@H](Cc1ccccc1)NC(=O)[C@@H](NC(=O)CNC(=O)[C@H](Cc1c[nH]cn1)NC(=O)C(C)(C)NC(=O)[C@@H](N)Cc1c[nH]cn1)[C@@H](C)O)[C@@H](C)O)C(=O)N[C@@H](CC(C)C)C(=O)N[C@@H](CC(C)C)C(=O)N[C@@H](CCC(=O)O)C(=O)N[C@@H](CCCCNC(=O)COCCOCCNC(=O)COCCOCCNC(=O)CC[C@H](NC(=O)CCCCCCCCCCCCCCCCCCC(=O)O)C(=O)O)C(=O)N[C@@H](CCCCN)C(=O)N[C@@H](C)C(=O)N[C@@H](C)C(=O)N[C@@H](CCC(N)=O)C(=O)N[C@@H](CCC(=O)O)C(=O)N[C@@H](Cc1ccccc1)C(=O)N[C@H](C(=O)N[C@@H](CCC(=O)O)C(=O)N[C@@H](Cc1c[nH]c2ccccc12)C(=O)N[C@@H](CC(C)C)C(=O)N[C@@H](CC(C)C)C(=O)N[C@@H](C)C(=O)NCC(=O)NCC(=O)N1CCC[C@H]1C(=O)N[C@@H](CO)C(=O)N[C@@H](CO)C(=O)NCC(=O)N[C@@H](C)C(=O)N1CCC[C@H]1C(=O)N1CCC[C@H]1C(=O)N1CCC[C@H]1C(=O)N[C@@H](CO)C(N)=O)C(C)C

How the values were obtained:
[1] = Solubility in the vehicle; type: physicochemical; settings: stated in the summary only, no test example
[2] = Pharmacokinetics in mice after single intravenous injection; parameters: species or system C57 mice; settings: mouse, in vivo, male C57 mice, single intravenous dose 200 nmol/kg, plasma
Method in brief: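 Male C57 mice (~25 g, 4-6 weeks, n=3) received a single i.v. dose of 200 nmol/kg in 1×PBS. Plasma collected from 5 min to 72 h was methanol-precipitated with verapamil internal standard and quantified by LC-MS (ESI positive, MRM); PK parameters were calculated by PKSolver.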

[3] = target: T1, human GIPR; assay: cAMP HTRF agonist activity assay in CHO-K1 cells expressing GIPR; type: cell-based
Method in brief: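 Clonal CHO-K1 lines, 5000 cells/well, exposed to polypeptides for 30 min at 37°C. Intracellular cAMP read by HTRF (cAMP-d2 conjugate plus anti-cAMP-Eu cryptate in lysis buffer). Relative EC50 from four-parameter nonlinear fit of percent maximum response against concentration.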

[4] = target: human glucagon-like peptide-1 receptor (human, UniProt P43220 24-463); assay: cell-based or functional assay
[5] = target: T2, human glucose-dependent insulinotropic …; assay: cell-based or functional assay
[6] = target: T3, human glucagon receptor (human, UniProt P47871 26-477); assay: cell-based or functional assay
T3 sequence (P47871 26-477): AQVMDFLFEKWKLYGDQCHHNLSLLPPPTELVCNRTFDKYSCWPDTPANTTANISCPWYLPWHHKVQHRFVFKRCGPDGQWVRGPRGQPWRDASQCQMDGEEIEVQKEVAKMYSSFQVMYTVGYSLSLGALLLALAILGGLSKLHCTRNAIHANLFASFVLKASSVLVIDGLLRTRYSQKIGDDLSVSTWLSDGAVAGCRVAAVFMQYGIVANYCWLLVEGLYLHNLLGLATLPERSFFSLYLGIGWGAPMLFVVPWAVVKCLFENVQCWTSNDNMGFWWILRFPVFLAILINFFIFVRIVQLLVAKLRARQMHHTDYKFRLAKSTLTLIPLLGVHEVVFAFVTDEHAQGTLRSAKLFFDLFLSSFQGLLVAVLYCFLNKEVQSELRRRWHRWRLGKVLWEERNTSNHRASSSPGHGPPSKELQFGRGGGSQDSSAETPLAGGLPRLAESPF

[7] = target: T2, human glucose-dependent insulinotropic …; assay: cell-based or functional assay; remark: listed apart in the source
[8] = target: T3, human glucagon receptor; assay: cell-based or functional assay; remark: listed apart in the source

Molecule	Activity against human GLP-1R (EC50 nM) [4] [nM]	Activity against human GIPR (EC50 nM) [5] [nM]	Activity against human GCGR (EC50 nM) [6] [nM]	also measured
CC[C@H](C)[C@H](NC(=O)[C@H](CC(C)C)NC(=O)[C@H](Cc1c[nH]c2ccccc12)NC(=O)[C@H](CCC(=O)O)NC(=O)[C@@H](NC(=O)[C@H](Cc1ccccc1)NC(=O)[C@H](CCC(=O)O)NC(=O)[C@](C)(CO)NC(=O)[C@H](C)NC(=O)[C@H](C)NC(=O)[C@H](CCCCN)NC(=O)[C@H](CCCCNC(=O)COCCOCCNC(=O)COCCOCCNC(=O)CC[C@H](NC(=O)CCCCCCCCCCCCCCCCCCC(=O)O)C(=O)O)NC(=O)[C@H](CCC(=O)O)NC(=O)[C@H](CC(C)C)NC(=O)[C@H](CC(C)C)NC(=O)[C@](C)(CCCCN)NC(=O)[C@H](CO)NC(=O)[C@H](Cc1ccc(O)cc1)NC(=O)[C@H](CC(=O)O)NC(=O)[C@H](CO)NC(=O)[C@@H](NC(=O)[C@H](Cc1ccccc1)NC(=O)[C@@H](NC(=O)CNC(=O)[C@H](Cc1c[nH]cn1)NC(=O)C(C)(C)NC(=O)[C@@H](N)Cc1c[nH]cn1)[C@@H](C)O)[C@@H](C)O)C(C)C)C(=O)N[C@@H](CCC(=O)O)C(=O)NCC(=O)NCC(=O)N1CCC[C@H]1C(=O)N[C@@H](CO)C(=O)N[C@@H](CO)C(=O)NCC(=O)N[C@@H](C)C(=O)N1CCC[C@H]1C(=O)N1CCC[C@H]1C(=O)N1CCC[C@H]1C(=O)N[C@@H](CO)C(N)=O [Compound 0126] (H-H[Aib]HGTFTSDYS[αMeK]LLEK([AEEA-AEEA-γGlu-C20 diacid])KAA[αMeS]EFVEWLIEGGPSSGAPPPS-NH2)	–	–	–	solubility in the vehicle [1]: ≥ 20 mg/mL; AUC(0-inf) [2]: 103 µM·h; C0 [2]: 7.17 µM; clearance ([2]; read-out: CLp): 1.98 mL/h/kg; half-life ([2]; read-out: T1/2 (converted)): 10.1 h; EC50 [3]: 2 pM
B1	0.023	0.005	0.087	–
B2	0.031	0.005	0.087	–
B3	–	–	–	Activity against human GIPR (EC50 nM) [7]: 0.002 nM; Activity against human GCGR (EC50 nM) [8]: 0.071 nM
B4	0.026	0.002	0.121	–
H[Aib]HGTFTSDYS[αMeK]YLEK([AEEA-AEEA-γGlu-C20 diacid])KAAQEFVEWLIEGGPSSGAPPPS-NH2 [Compound No. 0115]	0.023	0.051	0.425	–
